Data as given in article PMC5552905, “Mechanisms of peptide sex pheromone regulation of conjugation in Enterococcus faecalis” (MicrobiologyOpen, 2017).
“Also recorded” adds a separate entry of the source. Where two headings read alike, the source gives them in different places.

What was measured:
[1] = test system: +10 probe (10 bp inserted between XBS1 and XBS2 sites); format: binding, Enterococcus faecalis (plasmid pCF10)
Text: (§1) The LT DNA template containing XBS1 and XBS2 sites (LT DNA, pCF10 sequence from nt 8029 to nt8185 (Hirt et al., 2005)) was PCR amplified from pCF10 using primers as described in. The XBS1 DNA template only has XBS1 site (pCF10 sequence 8029–8131nt) was made by annealing oligos ‐129/‐47‐F (5′[…] 3′) and −129/−47R (5′[…] 3′) to obtain double‐stranded DNA. The XBS2 DNA template only has the XBS2 site (pCF10 sequence from 8109 to 8290; −66 to +114 relative to the prgQ transcription initiation site), and was PCR amplified from pCF10 using primers as described in Caserta et al., 2012. In DNA templates with 5‐bp or 10‐bp insertions, sequence GTACC or […] was inserted between XBS1 and XBS2 sites and at a position of 6‐bp after the XBS1 site. DNA probes were labeled at the 3′‐ends with DIG‐11‐ddUTP using the DIG Gel Shift kit (Roche) by following the manufacturer's instructions. EMSA assays were performed in 20 μl reactions: DIG‐labeled DNA, purified proteins, 1 μg of poly‐[d(A‐T)], 0.1 μg of poly‐L‐lysine, 1 × reaction buffer (20 mmol L^−1 Tris‐HCl, pH 7.9, 0.1 mol L^−1 NaCl, 0.1 mmol L^−1 EDTA, 10% glycerol, 0.01 mol L^−1 MgCl2). The reactions were incubated at room temperature for 15 min and loaded onto 5% polyacrylamide gels in 1 × TBE buffer (Tris, Borate, EDTA, pH 7.9). […]

[2] = test system: B2 m1 DNA probe (XBS2 sequence changed); assay: EMSA: PrgX and RNAP binding to B2 m1 probe (mutated XBS2); set-up: species or system Enterococcus faecalis (plasmid pCF10); conditions: PrgX 18, 54 nmol L^−1; RNAP 200, 240 nmol L^−1; RT, 15 min
Text: as §1

P Q (prgQ promoter) = conditions: purified PrgX, no peptide, ref Caserta et al., 2012, cited from earlier work
Text: The target of PrgX‐peptide‐mediated regulation is the prgQ promoter (P Q), which controls expression of the majority of factors involved in pCF10 conjugation. PrgX binds specifically to two operator sites (XBS1 and XBS2) in the P Q region between prgX and prgQ. Because the lower‐affinity XBS2 site overlaps PQ, occupancy of XBS2 by PrgX could impede RNA polymerase binding to the promoter. Based on genetic and structural data, it was proposed that pairs of PrgX dimers could bind to XBS1 and XBS2, with the intervening DNA forming a loop that is stabilized by protein–protein interactions between t ... || It is interesting to consider transcription regulation in the pCF10 system by PrgX in relation to other well‐studied bacterial transcription factors. Many of the canonical transcription factors such as LacI are present in very low concentrations, and are modulated by low molecular weight ligands (co‐repressors, etc.) that are generally more abundant (Muller‐Hill, 1998). In contrast, wild‐type E. faecalis cells carrying pCF10 contain a large excess of PrgX (~15‐fold ratio of X dimers/XBSs) (Caserta et al., 2012), while the extracellular (and probably intracellular) concentrations of the peptide ...

[3] = test system: P Q (prgQ promoter) lacZ reporter; assay: β-galactosidase assay of P Q-lacZ reporter (pBK2, pBK2 + 5, pBK2 + 10) in E. faecalis; format: cell-based, Enterococcus faecalis; conditions: 10 ng/ml of C, 30 min at 37°C, PrgX in trans from pCF10, one experiment representative of three
Procedure: To construct plasmids pBK2 + 5 and pBK2 + 10, the intergenic region between prgQ and prgX was excised from plasmids pBKAdd5 and pBKAdd10 and was cloned into pBK2 using enzymes XhoI and BamHI. Plasmids pBKAdd5 and pBKAdd10 (have the 5‐bp and 10‐bp sequence inserted between XBS1 and XBS2 sites (Kozlowicz, 2005).
E. faecalis cultures were grown overnight in M9‐YEG broth at 37°C with selective antibiotics. Cultures were then diluted 1:10 in fresh medium and grown for 90 min at 37°C. For induction, a final concentration of 10 ng/ml of C was added and cells were incubated for additional 30 min at 37°C. A modified Miller assay was performed as previously described (Kozlowicz, Bae, & Dunny, 2004).
To examine the effects of looping in vivo, we introduced the +5 and +10 base pair insertions between XBS1 and XBS2 sites on the reporter plasmid pBK2, which has a pheromone‐inducible lacZ reporter gene fused downstream from P Q. This enables transcription from P Q to be monitored by measuring β‐galactosidase activity in cell extracts. We transformed these constructs into either OG1Sp or OG1Sp/pCF10 (to provide PrgX protein in trans) and the resulting strains were assayed for β‐galactosidase production in the presence or absence of C.
Figure 4 Expression of β‐galactosidase from E. faecalis cells containing pBK2, pBK2 + 5, and pBK2 + 10. […]

[4] = test system: LT DNA (XBS1 and XBS2 operator sites), P Q promoter region; format: binding, Enterococcus faecalis (plasmid pCF10); conditions: LT DNA 8 fmol; PrgX 38-568 nmol L^−1 preincubated 5 min at room temperature with 40 nmol L^−1 peptide (C, I)
Text: (§2) The LT DNA template containing XBS1 and XBS2 sites (LT DNA, pCF10 sequence from nt 8029 to nt8185 (Hirt et al., 2005)) was PCR amplified from pCF10 using primers as described in. The XBS1 DNA template only has XBS1 site (pCF10 sequence 8029–8131nt) was made by annealing oligos ‐129/‐47‐F (5′[…] 3′) and −129/−47R (5′[…] 3′) to obtain double‐stranded DNA. The XBS2 DNA template only has the XBS2 site (pCF10 sequence from 8109 to 8290; −66 to +114 relative to the prgQ transcription initiation site), and was PCR amplified from pCF10 using primers as described in Caserta et al., 2012. In DNA templates with 5‐bp or 10‐bp insertions, sequence GTACC or […] was inserted between XBS1 and XBS2 sites and at a position of 6‐bp after the XBS1 site. DNA probes were labeled at the 3′‐ends with DIG‐11‐ddUTP using the DIG Gel Shift kit (Roche) by following the manufacturer's instructions. EMSA assays were performed in 20 μl reactions: DIG‐labeled DNA, purified proteins, 1 μg of poly‐[d(A‐T)], 0.1 μg of poly‐L‐lysine, 1 × reaction buffer (20 mmol L^−1 Tris‐HCl, pH 7.9, 0.1 mol L^−1 NaCl, 0.1 mmol L^−1 EDTA, 10% glycerol, 0.01 mol L^−1 MgCl2). The reactions were incubated at room temperature for 15 min and loaded onto 5% polyacrylamide gels in 1 × TBE buffer (Tris, Borate, EDTA, pH 7.9). After electrophoresis at 100 V for 1.5 h, the DNA–protein complexes and DNA probes were electrotransferred onto a nylon membrane (Roche) at 6 V for 2 h using the GENIE electrophoretic blotter (Idea Scientific). DIG‐labeled DNA fragments were visualized by an enzyme immunoassay (DIG Gel Shift Kit, Roche) following the manufacturer's instructions. […] For the experiments reported here the powdered form of the peptides were initially solubilized in pure DMF at 0.5 mg/ml, and then diluted 10‐fold in KPBS for use as a working stock solution, which was diluted into the EMSA reactions to a final peptide concentration of 40 nmol L^−1.
EMSA assays were performed using 8 fmol of digoxigenin‐labeled LT DNA probes with increasing amounts of PrgX protein. PrgX was preincubated for 5‐min at room temperature with 40 nmol L^−1 of C (a) or I (b) before adding LT DNA. PrgX concentrations: lanes 2 and 6: 38 nmol L^−1; lanes 3 and 7: 76 nmol L^−1; lanes 4 and 8: 190 nmol L^−1; lanes 5 and 9: 568 nmol L^−1. (c) Cartoon showing the predicted products formed by binding PrgX to LT DNA.

[5] = test system: LT DNA (containing XBS1 and XBS2 sites); format: binding, Enterococcus faecalis (plasmid pCF10)
Text: as §2

LT DNA (prgQ promoter) = format: binding, Enterococcus faecalis (plasmid pCF10)
Text: as §2

[6] = test system: XBS1 and XBS2 operator sites; conditions: apo-PrgX, ref Bae et al., 2002, cited from earlier work
Text: We determined effects of C and I on PrgX‐DNA binding using in vitro electrophoretic mobility shift assays (EMSAs).

[7] = test system: +5 probe (5 bp inserted between XBS1 and XBS2 sites)
Text: as §1

B1: PrgX: master transcription regulator PrgX, a repressor of transcription of the prgQ operon; apo form is a dimer in solution (protein)
chain: MFKIGSVLKQIRQELNYHQIDLYSGIMSKSVYIKVEADSRPISVEELSKFSERLGVNFFEILNRAGMNTKSVNETGKEKLLISKIFTNPDLFDKNFQRIEPKRLTSLQYFSIYLGYISIAHHYNIEVPTFNKTITSDLKHLYDKRTTFFGIDYEIVSNLLNVLPYEEVSSIIKPMYPIVDSFGKDYDLTIQTVLKNALTISIMNRNLKEAQYYINQFEHLKTIKNISINGYYDLEINYLKQIYQFLTDKNIDSYLNAVNIINIFKIIGKEDIHRSLVEELTKISAKEKFTPPKEVTMYYENYVAIENNPIPEIKEQS
modifications: left off: His tag, end not stated, kept
notes: master transcription regulator PrgX, a repressor of transcription of the prgQ operon; apo form is a dimer in solution
[1]
  shift of +10 probe (band I / band II): binding profile was similar to LT DNA wild‐type probe
[2]
  binding to B2 m1 probe: produced the band I shift, however, there was a dramatic reduction in band II
P Q (prgQ promoter)
  repression of P Q in vitro: directly represses P Q
P Q (prgQ promoter); listed as apo‐PrgX
  repression of P Q in vitro: repress prgQ transcription in vitro
[3]; pBK2 + 5
  lacZ expression (β-galactosidase), 5 bp insertion construct: no effect on lacZ activity
[3]; pBK2 + 10
  lacZ expression (β-galactosidase), 10 bp insertion construct: β‐galactosidase expression was repressed
[4]
  effect on PrgX-DNA binding: shifted complexes, amount of band II (supershift): bound to the LT, producing two‐shifted complexes: band I and band II
[5]
  fold higher K D of PrgX dimer to XBS1 site: about 10 fold
  fold higher K D of PrgX dimers bound to XBS2: ~1000 fold
[5]; EMSA densitometry, two-site binding polynomial, apo-PrgX (dimer) on LT DNA, mean ± SD of three independent EMSA experiments, read-out: K xbs1: K D of binding to XBS1 site
  Kd: 4.04 ± 3.36 nM
LT DNA (prgQ promoter)
  effect on LT DNA shifts / RNAP binding: formation of the high‐molecular‐weight RNAP‐DNA species was nearly eliminated; also recorded: hinders RNAP binding to prgQ promoter
[6]; listed as Apo‐PrgX
  relative affinity for XBS1 vs XBS2 / binding to probes lacking XBS1: binds to XBS1 with relatively higher affinity than to XBS2
[6]; listed as apo‐PrgX
  relative affinity for XBS1 vs XBS2 / binding to probes lacking XBS1: reduced binding of apo‐PrgX to DNA probes lacking XBS1 and virtually no supershifted species resembling Band II
[7]
  shift of +5 probe (band I / band II): shifted the probe nearly completely to band I, with no distinct supershifted band II
